In US20260274985A1 (MYTHIC THERAPEUTICS, published 2026):
Positions count from the first letter of the chain named.

T1: TROP2 on TROP2-positive NCI-H1975 cells (human, UniProt P09758 27-323)
T1 sequence: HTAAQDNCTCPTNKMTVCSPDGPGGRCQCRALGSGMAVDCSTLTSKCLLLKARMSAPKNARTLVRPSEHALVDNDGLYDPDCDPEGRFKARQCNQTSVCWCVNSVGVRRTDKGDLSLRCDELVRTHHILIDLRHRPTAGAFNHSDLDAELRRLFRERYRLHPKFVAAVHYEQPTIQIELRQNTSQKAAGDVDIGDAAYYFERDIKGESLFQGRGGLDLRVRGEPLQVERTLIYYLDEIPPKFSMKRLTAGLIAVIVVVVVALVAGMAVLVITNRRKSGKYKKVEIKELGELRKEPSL

B1: MYT13429 (antibody, V domains shown)
VH: QVQLQQSGSELKKPGASVKVSCKASGYTFTNYGMNWVKQAPGQGLKWMGWINTYTGEPTYTDDFKHRFAFSLDTSVSTAYLQISSLKADDTAVYFCARGGFGSSYWYFDVWGQGSLVTVSS
VL: DIQLTQSPSSLSASVGDRVSITCKASQDVHIAVAWYQQKPGKAPKLLIYSHSYRYTGVPDRFSGSGSGTDFTLTISSLQPEDFAVYYCQQHYHTPLTFGAGTKVEIK
B2: MYT13433 (antibody, V domains shown)
VH: B1 VH with D62H, H66G
VL: B1 VL with H30S, Y53H
B3: MYT13417 (antibody, V domains shown)
VH: B1 VH with D62H, H66G
VL: B1 VL with Q89H, H93I
B4: MYT13386 (antibody, V domains shown)
VH: B1 VH with D63H, H66G
VL: B1 VL with H51A, S52H, H93I
B5: MYT13424 (antibody, V domains shown)
VH: B1 VH with Y60H, H66G
VL: B1 VL
B6: MYT13426 (antibody, V domains shown)
VH: B1 VH with D63H, H66G
VL: B1 VL
B7: MYT13373 (antibody, V domains shown)
VH: B1 VH
VL: B1 VL with V33H, H51A, H93I
B8: MYT13371 (antibody, V domains shown)
VH: B1 VH with F64H, H66G
VL: B1 VL with V33H, H51A, H93I
B9: MYT13418 (antibody, V domains shown)
VH: B1 VH with D63H, H66G
VL: B1 VL with Q89H, H93I
B10: MYT13437 (antibody, V domains shown)
VH: B1 VH
VL: B1 VL with H30S, Y53H
B11: MYT13434 (antibody, V domains shown)
VH: B1 VH with D63H, H66G
VL: B1 VL with H30S, Y53H
B12: MYT13368 (antibody, V domains shown)
VH: B1 VH with Y60H, H66G
VL: B1 VL with V33H, H51A, H93I
B13: MYT13376 (antibody, V domains shown)
VH: B1 VH with Y60H, H66G
VL: B1 VL with H93I
B14: MYT13421 (antibody, V domains shown)
VH: B1 VH
VL: B1 VL with Q89H, H93I
B15: MYT13378 (antibody, V domains shown)
VH: B1 VH with D63H, H66G
VL: B1 VL with H93I
B16: MYT13432 (antibody, V domains shown)
VH: B1 VH with Y60H, H66G
VL: B1 VL with H30S, Y53H
B17: MYT13374 (antibody, V domains shown)
VH: B1 VH with Y32H, H66G
VL: B1 VL with H93I
B18: MYT13366 (antibody, V domains shown)
VH: B1 VH with Y32H, H66G
VL: B1 VL with V33H, H51A, H93I
B19: MYT13420 (antibody, V domains shown)
VH: B1 VH with K65H, H66G
VL: B1 VL with Q89H, H93I
B20: MYT13379 (antibody, V domains shown)
VH: B1 VH with F64H, H66G
VL: B1 VL with H93I
B21: MYT13435 (antibody, V domains shown)
VH: B1 VH with F64H, H66G
VL: B1 VL with H30S, Y53H
B22: MYT13395 (antibody, V domains shown)
VH: B1 VH with F64H, H66G
VL: B1 VL with H30S, V33H, H51A, Y53H, H93I
B23: MYT13416 (antibody, V domains shown)
VH: B1 VH with Y60H, H66G
VL: B1 VL with Q89H, H93I
B24: MYT13377 (antibody, V domains shown)
VH: B1 VH with D62H, H66G
VL: B1 VL with H93I
B25: MYT13388 (antibody, V domains shown)
VH: B1 VH with K65H, H66G
VL: B1 VL with H51A, S52H, H93I
B26: MYT13392 (antibody, V domains shown)
VH: B1 VH with Y60H, H66G
VL: B1 VL with H30S, V33H, H51A, Y53H, H93I
B27: MYT13372 (antibody, V domains shown)
VH: B1 VH with K65H, H66G
VL: B1 VL with V33H, H51A, H93I
B28: MYT13401 (antibody, V domains shown)
VH: B1 VH with D62H, H66G
VL: B1 VL with H30S, V33H, H51A
B29: MYT13405 (antibody, V domains shown)
VH: B1 VH
VL: B1 VL with H30S, V33H, H51A
B30: MYT13400 (antibody, V domains shown)
VH: B1 VH with Y60H, H66G
VL: B1 VL with H30S, V33H, H51A
B31: MYT13403 (antibody, V domains shown)
VH: B1 VH with F64H, H66G
VL: B1 VL with H30S, V33H, H51A
B32: MYT13422 (antibody, V domains shown)
VH: B1 VH with Y32H, H66G
VL: B1 VL
B33: MYT13402 (antibody, V domains shown)
VH: B1 VH with D63H, H66G
VL: B1 VL with H30S, V33H, H51A
B34: MYT13404 (antibody, V domains shown)
VH: B1 VH with K65H, H66G
VL: B1 VL with H30S, V33H, H51A
B35: MYT13398 (antibody, V domains shown)
VH: B1 VH with Y32H, H66G
VL: B1 VL with H30S, V33H, H51A
B36: MYT13413 (antibody, V domains shown)
VH: B1 VH
VL: B1 VL with H30S, S52H, H93I
B37: MYT13290 (antibody, V domains shown)
VH: QVQLQESGPGLVKPSETLSLTCTVSGGSISSYGVHWIRQPPGKGLEWIGVIWTSGVTDYNSALMGRVTISVDTSKNQFSLKLSSVTAADTAVYYCARDGDYDRYTHDYWGQGTLVTVSS
VL: DIVMTQSPDSLAVSLGERATINCRASKSVSTSGYSYMHWYQQKPGQPPKLLIYLASNLESGVPDRFSGSGSGTDFTLTISSLQAEDVAVYYCHHSRELPYTFGQGTKLEIK
B38: MYT13285 (antibody, V domains shown)
VH: B37 VH
VL: B37 VL with S60H, H93Q
B39: MYT13298 (antibody, V domains shown)
VH: B37 VH with D102H, H106M
VL: B37 VL with H93Q, E97H
B40: MYT13283 (antibody, V domains shown)
VH: B37 VH with D102H, H106M
VL: B37 VL with S60H, H93Q
B41: MYT13300 (antibody, V domains shown)
VH: B37 VH
VL: B37 VL with H93Q, E97H
B42: MYT13279 (antibody, V domains shown)
VH: B37 VH with R103H, H106M
VL: B37 VL with E59H, H93Q
B43: MYT13289 (antibody, V domains shown)
VH: B37 VH with R103H, H106M
VL: B37 VL
B44: MYT13299 (antibody, V domains shown)
VH: B37 VH with R103H, H106M
VL: B37 VL with H93Q, E97H

target: T1, TROP2 on TROP2-positive NCI-H1975 cells; test: cell-based or functional assay

Compared with B1, B2 is lower in “FOW H1975 (10 nM)” value: 1.83 fold over parent antibody for the first, 1.82 fold over parent antibody for the second.

First: B3
Second: B4
The “FOW H1975 (10 nM)” value of the first is higher: 1.76 fold over parent antibody for the first, 1.71 fold over parent antibody for the second.

B5 and B6 are the same in “FOW H1975 (10 nM)” value: 1.71 fold over parent antibody for the first, 1.71 fold over parent antibody for the second.

First: B7
Second: B8
The “FOW H1975 (10 nM)” value of the first is higher: 1.6 fold over parent antibody for the first, 1.51 fold over parent antibody for the second.

Going from B9 to B10, the “FOW H1975 (10 nM)” value falls from 1.51 fold over parent antibody to 1.49 fold over parent antibody.

Going from B11 to B12, the “FOW H1975 (10 nM)” value falls from 1.46 fold over parent antibody to 1.43 fold over parent antibody.

B13 and B14 are the same in “FOW H1975 (10 nM)” value: 1.42 fold over parent antibody for the first, 1.42 fold over parent antibody for the second.

B15 and B16 are the same in “FOW H1975 (10 nM)” value: 1.4 fold over parent antibody for the first, 1.4 fold over parent antibody for the second.

Going from B17 to B18, the “FOW H1975 (10 nM)” value falls from 1.37 fold over parent antibody to 1.35 fold over parent antibody.

First: B19
Second: B20
The “FOW H1975 (10 nM)” value of the first is higher: 1.34 fold over parent antibody for the first, 1.33 fold over parent antibody for the second.

First: B21
Second: B22
The “FOW H1975 (10 nM)” value of the first is higher: 1.33 fold over parent antibody for the first, 1.29 fold over parent antibody for the second.

Compared with B23, B24 is lower in “FOW H1975 (10 nM)” value: 1.29 fold over parent antibody for the first, 1.26 fold over parent antibody for the second.

Going from B25 to B26, the “FOW H1975 (10 nM)” value falls from 1.24 fold over parent antibody to 1.19 fold over parent antibody.

Going from B27 to B28, the “FOW H1975 (10 nM)” value falls from 1.18 fold over parent antibody to 1.16 fold over parent antibody.

Going from B29 to B30, the “FOW H1975 (10 nM)” value falls from 1.16 fold over parent antibody to 1.13 fold over parent antibody.

B31 and B32 are the same in “FOW H1975 (10 nM)” value: 1.13 fold over parent antibody for the first, 1.13 fold over parent antibody for the second.

Compared with B33, B34 is lower in “FOW H1975 (10 nM)” value: 1.1 fold over parent antibody for the first, 1.08 fold over parent antibody for the second.

Going from B35 to B36, the “FOW H1975 (10 nM)” value falls from 1.07 fold over parent antibody to 1.06 fold over parent antibody.

Compared with B37, B38 is lower in “FOW H1975 (10 nM)” value: 1.7 fold over parent antibody for the first, 1.61 fold over parent antibody for the second.

Going from B39 to B40, the “FOW H1975 (10 nM)” value falls from 1.59 fold over parent antibody to 1.51 fold over parent antibody.

Going from B41 to B42, the “FOW H1975 (10 nM)” value falls from 1.39 fold over parent antibody to 1.37 fold over parent antibody.

Going from B43 to B44, the “FOW H1975 (10 nM)” value falls from 1.37 fold over parent antibody to 1.35 fold over parent antibody.
